According to patent US20240182561A1 (Regeneron, published 2024):

T1: mouse CACNG1 expressed on cells (mouse, UniProt O70578 1-223)
T1 sequence (looked up): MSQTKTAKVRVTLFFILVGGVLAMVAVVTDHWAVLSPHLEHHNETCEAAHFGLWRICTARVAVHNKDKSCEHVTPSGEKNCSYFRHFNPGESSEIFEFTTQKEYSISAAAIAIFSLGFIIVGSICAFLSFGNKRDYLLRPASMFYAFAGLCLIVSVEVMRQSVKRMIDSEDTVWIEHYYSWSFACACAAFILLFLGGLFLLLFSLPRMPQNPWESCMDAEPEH

B1: REGN10715 (antibody, human IgG4 S228P, kappa)
heavy: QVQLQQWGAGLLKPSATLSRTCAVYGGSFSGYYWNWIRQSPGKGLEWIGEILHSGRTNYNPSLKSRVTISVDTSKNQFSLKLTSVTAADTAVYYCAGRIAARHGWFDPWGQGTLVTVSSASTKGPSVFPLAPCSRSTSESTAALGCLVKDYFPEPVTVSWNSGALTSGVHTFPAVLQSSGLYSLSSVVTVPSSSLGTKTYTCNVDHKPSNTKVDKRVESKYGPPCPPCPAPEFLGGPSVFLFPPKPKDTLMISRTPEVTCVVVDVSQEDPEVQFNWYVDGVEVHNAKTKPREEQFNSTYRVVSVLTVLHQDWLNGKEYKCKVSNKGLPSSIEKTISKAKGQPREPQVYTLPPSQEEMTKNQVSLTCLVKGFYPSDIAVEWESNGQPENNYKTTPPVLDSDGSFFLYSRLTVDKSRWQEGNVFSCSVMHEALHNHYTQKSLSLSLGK
light: DIQMTQSPSSVSTSVGDRVTISCRASQDIRKWLAWYQQKPGKAPKLLIYATSSLQSGVPSRFSGSGSGTDFTLTISSLQPEDFATYFCQQANSFPFTFGQGTKLEIKRTVAAPSVFIFPPSDEQLKSGTASVVCLLNNFYPREAKVQWKVDNALQSGNSQESVTEQDSKDSTYSLSSTLTLSKADYEKHKVYACEVTHQGLSSPVTKSFNRGEC
notes: hIgG4
B2: H2aM31944N (antibody, mouse IgG2a, kappa, V domains shown)
VH: QVQLVESGGGVVQPGRSLRLSCEASGITFRNYGMHWVRQAPGKGLEWVAVMWYDGSNKYYADSVKGRFTISRDNSKNTVYLQMNSLRAEDTAVYYCARRGHIATAAPFDYWGQGTLVTVSS
VL: DIQMTQSPSSLSASVGDRVTISCRASQSISSYLNWYQQKPGKAPKVLMYAASSLQSGVPSRFSGSGSGTDFTLTISSLQPEDFATYYCQQSYSTPPITFGQGTRLEIKR
notes: mIgG2a; also called CACNG1 mIgG2a antibody
B3: REGN7660 (antibody, human IgG4 S228P, kappa, V domains shown)
VH: EVQLVESGGGLVQPGGSLKLSCTASGLTLSDSAMHWVRQASGKGLEWVGRIRNKANRYATEYAASVKGRFTISRDDSKNTAYLQMNSLKTEDTAVYYCTRNWKIFLFDYWGQGTLVTVSS
VL: EIVLTQSPGTLTLSPGERATLSCRASQSVGSKYLAWFQQKRGQAPRLLIYGASSRTSGIPDRISGSGSGTDFTLTISRLEPEDFAVYYCQQYGSSPWTFGQGTKVEIKR
notes: hIgG4
B4: REGN10713 (antibody, human IgG4 S228P, lambda)
heavy: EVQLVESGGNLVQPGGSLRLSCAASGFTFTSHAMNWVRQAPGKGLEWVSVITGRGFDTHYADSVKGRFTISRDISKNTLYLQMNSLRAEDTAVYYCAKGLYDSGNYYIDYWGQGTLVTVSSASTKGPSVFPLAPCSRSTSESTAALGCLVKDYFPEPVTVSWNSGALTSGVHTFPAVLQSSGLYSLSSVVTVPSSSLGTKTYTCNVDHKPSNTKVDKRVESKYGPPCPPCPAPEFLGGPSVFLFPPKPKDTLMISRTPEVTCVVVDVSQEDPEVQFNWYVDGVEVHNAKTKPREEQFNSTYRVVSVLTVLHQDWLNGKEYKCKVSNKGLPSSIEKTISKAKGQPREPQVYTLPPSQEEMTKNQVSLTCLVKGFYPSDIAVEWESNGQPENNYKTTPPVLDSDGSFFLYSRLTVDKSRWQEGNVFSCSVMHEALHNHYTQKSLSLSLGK
light: QSVLTQPPSVSAAPGQKVTISCSGSSSNIGNNYVSWYQQLPGTAPKLLIYDNNKRPSGIPDRFSGSKSGTSATLGITGLQTGDEADYYCGTWDLSLSFNWVFGGGTKLTVLGQPKAAPSVTLFPPSSEELQANKATLVCLISDFYPGAVTVAWKADSSPVKAGVETTTPSKQSNNKYAASSYLSLTPEQWKSHRSYSCQVTHEGSTVEKTVAPTECS
notes: hIgG4
B5: H2aM31941N (antibody, mouse IgG1, kappa, V domains shown)
VH: QVQLVQSGAEVKKPGASVKVSCKASGYAFTTYGITWVRQAPGQGLEWMGWISAYNGNTNYAEKVQGRFTMTTDTSTNTAYMELRSLRSDDTAVYFCARKGHYGSGTYYNPFGFDFWGQGTMVTVSS
VL: EIMLMQSPGTLSLSPGERATLSCRASQSVSSSYLAWYQQKPGQAPRLLIYGASSRATDIPDRFSGSGSGTDFTLTISRLEPEDFAVYFCQQYYGSPWTFGQGTKVEIKR
notes: Both names are treated as one molecule; also called H1M31941N; lot H1M31941N-L1
B6: REGN10728 (antibody, human IgG4 S228P, kappa)
heavy: QVQLVESGGGVVQPGRSLRLSCTASGITFRNYGMHWVRQAPGKGLEWVAVMWYDGSNKYYADSVKGRFTISGDNSKVYLQMNSLRAEDTAVYYCARRGTIRTAAPFDYWGQGTLVTVSSASTKGPSVFPLAPCSRSTSESTAALGCLVKDYFPEPVTVSWNSGALTSGVHTFPAVLQSSGLYSLSSVVTVPSSSLGTKTYTCNVDHKPSNTKVDKRVESKYGPPCPPCPAPGGGGPSVFLFPPKPKDTLMISRTPEVTCVVVDVSQEDPEVQFNWYVDGVEVHNAKTKPREEQFNSTYRVVSVLTVLHQDWLNGKEYKCKVSNKGLPSSIEKTISKAKGQPREPQVYTLPPSQEEMTKNQVSLTCLVKGFYPSDIAVEWESNGQPENNYKTTPPVLDSDGSFFLYSRLTVDKSRWQEGNVFSCSVMHEALHNHYTQKSLSLSLGK
light: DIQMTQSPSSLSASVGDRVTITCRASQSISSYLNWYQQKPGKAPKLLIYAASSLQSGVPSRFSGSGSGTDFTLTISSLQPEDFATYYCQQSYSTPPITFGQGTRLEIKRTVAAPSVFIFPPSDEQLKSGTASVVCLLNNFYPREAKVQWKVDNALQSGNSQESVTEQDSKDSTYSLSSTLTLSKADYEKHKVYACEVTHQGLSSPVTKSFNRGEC
notes: also called H2aM31929N/REGN10728; CACNG1 hIgG4 uber stealth antibody

What was measured:
[1] = target: T2, human CACNG1 expressed on cells (human, UniProt Q06432 1-222); assay: cell-based or functional assay
T2 sequence (Q06432 whole entry): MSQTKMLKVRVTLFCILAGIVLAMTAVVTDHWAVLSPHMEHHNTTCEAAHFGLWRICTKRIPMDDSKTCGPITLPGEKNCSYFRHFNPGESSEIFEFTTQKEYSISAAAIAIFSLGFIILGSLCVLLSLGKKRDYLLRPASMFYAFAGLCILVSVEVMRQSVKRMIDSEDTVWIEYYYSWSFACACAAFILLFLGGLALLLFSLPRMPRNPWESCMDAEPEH

[2] = target: T1, mouse CACNG1 expressed on cells; assay: cell-based or functional assay
[3] = target: T1, mouse CACNG1 expressed on cells; assay: imaging cell binding, C2C12 mouse myotubes
Procedure: (§1) HuSKM were seeded in collagen-coated 96-well plates (Greiner Bio-One #655956) at 8,500 cells/well and grown for 24 hours. The growth media was changed to MyoTonic Differentiation Media (Cook Myosite Cat #MD-5555) and replaced every 2 days. Myotubes were assayed after 6 days of differentiation. C2C12 mouse myoblasts were maintained in DMEM with 10% FBS and 1% penicillin-streptomycin supplement and grown in a 37° C. incubator with 5% CO₂. C2C12 cells were seeded in collagen-coated 96-well plates (Greiner Bio-One #655956) at 10,000 cells/well for the cell binding assay and 5,000 cells/well for the cell killing assay. After 24 hours, growth media was replaced with differentiation media (DMEM with 2% horse serum) and placed in a 37° C. incubator with 7.5% CO₂. C2C12 myotubes were assayed after 3 days of differentiation. HEK293/hCACNG1, HEK293/mCACNG1, and HEK293 cells were seeded at 10,000 cells (cell binding assay) or 2,000 (cell killing assay) per well in 96-well black collagen coated plates (Greiner Bio-One, cat #655956) in complete growth media and grown overnight at 37° C. in 5% CO₂.
(§2) Relative binding of anti-CACNG1 antibodies was assessed across the entire panel of cell lines via imaging analysis. […] After one wash with antibody dilution buffer, samples were fixed in CytoFix (BD Biosciences, Cat #554655) diluted 1:1 in PBS and supplemented with a 1:2000 dilution of Hoechst 33342 (Thermo, Cat #H1399) for 20 minutes on ice. Images were acquired with a 10× objective on the Opera Phenix (Perkin Elmer) and relative fluorescence units (RFU) was determined using Harmony software (Perkin Elmer).

[4] = target: T3, nanodisc embedded human CACNG1 expressed with a C-terminal PADRE-Flag-His tag (human, UniProt Q06432 1-222); assay: SPR, anti-His-captured nanodisc, 25 C
T3 construct: Captured on an anti-His Biacore surface; also called human CACNG1 nanodisc; CACNG1 nanodisc; not shown: C-terminal tag
T3 sequence (Q06432 whole entry): as above
Procedure: Equilibrium dissociation constants (KD values) for nanodisc embedded human CACNG1 expressed with a C-terminal […] tag (human CACNG1 nanodisc; concentration 0.82 mg/ml) binding to purified anti-CACNG1 antibodies were determined using a real-time surface plasmon resonance biosensor technology with a Biacore T200 instrument. The CM5 Biacore sensor surface was derivatized by amine coupling with a monoclonal mouse anti-His antibody (Cytiva; Marlborough, MA). All Biacore binding studies were performed in a buffer composed of 0.01M HEPES, 0.15M NaCl, 1 mM CaCl₂, 0.5 mM MgCl₂, pH 7.4 (HBS-N++ running buffer). Different concentrations of anti-CACNG1 antibodies (ranging from 300 nM to 12 nM in 5-fold serial dilutions) prepared in HBS-N++ running buffer were injected over the captured human CACNG1 nanodisc at a flow rate of 30 μL/minute. Antibody association was monitored for 2 minutes while dissociation was monitored in HBS-N++ running buffer for 5 minutes. At the end of each cycle, the human CACNG1 nanodisc capture surface was regenerated using three 10 second injections of 10 mM Gly pH1.5. All binding kinetics experiments were performed at 25° C.
The specific SPR-Biacore sensorgrams were obtained by a double referencing procedure. The double referencing was performed by first subtracting the signal of each injection over a reference surface (anti-His) from the signal over the experimental surface (anti-His captured human CACNG1 nanodisc) thereby removing contributions from refractive index changes. In addition, running buffer injections were performed to allow subtraction of the signal changes resulting from the dissociation of captured antibodies from the coupled anti-His surface. Kinetic association (kₐ) and dissociation ([…]) rate constants were determined by fitting the real-time sensorgrams to a 1:1 binding model using Scrubber v2.0c curve fitting software. Binding dissociation equilibrium constants (KD) and dissociative half-lives (t %) were calculated from the kinetic rate constants as: […]

[5] = target: T1, mouse CACNG1 expressed on cells; assay: imaging cell binding, HEK293/mCACNG1
Procedure: as §1, §2

[6] = target: T2, human CACNG1 expressed on cells; assay: imaging cell binding, HuSKM myotubes
Procedure: as §1, §2

[7] = target: T2, human CACNG1 expressed on cells; assay: imaging cell binding, HEK293/hCACNG1
Procedure: as §1, §2

Binder | % KILL, indirect cell killing, HEK293/hCACNG1 [1] | % KILL, indirect cell killing, HuSKM [1] | EC50/IC50, indirect cell killing, HEK293/hCACNG1 [1] | EC50/IC50, indirect cell killing, HuSKM [1] | % KILL, indirect cell killing, C2C12 [2] | % KILL, indirect cell killing, HEK293/mCACNG1 [2] | EC50/IC50, indirect cell killing, C2C12 [2] | EC50/IC50, indirect cell killing, HEK293/mCACNG1 [2] | S/N [3] | Kd [4] | koff [4] | kon [4] | mAb bound at 300 nM [4] | t1/2 [4] | EC50 [5] | S/N [5] | EC50 [6] | S/N [6] | EC50 [7] | S/N [7] | other results
B1 | 96.4% | 99.6% | 0.000629 nM | 0.0097 nM | 99.8% | 96.1% | 0.00469 nM | 0.000187 nM | 8.4 fold | 1.98 nM | 0.000301 s⁻¹ | 152000 M⁻¹ s⁻¹ | 31 RU | 38.4 min | 0.26 nM | 69.4 fold | 0.2 nM | 1060 fold | 2.7 nM | 91.3 fold | EC50 [3]: 2.3 nM
B2 | 95.7% | 98.6% | 0.000356 nM | 0.0116 nM | 0% | 4.3% | > 10 nM | > 1 nM | 0.7 fold | 17.1 nM | 0.00395 s⁻¹ | 231000 M⁻¹ s⁻¹ | 16 RU | 2.9 min | > 100 nM | 2.2 fold | 0.48 nM | 321 fold | 3.3 nM | 93.4 fold | –
B3 | – | – | – | – | 99.8% | 92.3% | 0.0237 nM | 0.0134 nM | 1 fold | 12.6 nM | 0.0243 s⁻¹ | 1.93e+06 M⁻¹ s⁻¹ | 23 RU | 0.5 min | > 100 nM | 7.2 fold | – | – | – | – | –
B4 | – | – | – | – | 0% | 2.4% | > 10 nM | > 1 nM | 2 fold | 0.635 nM | 4.72e-05 s⁻¹ | 74200 M⁻¹ s⁻¹ | 53 RU | 245 min | > 100 nM | 2.7 fold | – | – | – | – | –
B5 | 95.4% | 91.2% | 0.00217 nM | 0.112 nM | 0.4% | 4.9% | > 10 nM | > 1 nM | 1.2 fold | 1.19 nM | 0.000406 s⁻¹ | 342000 M⁻¹ s⁻¹ | 19 RU | 28.4 min | – | 1.4 fold | 0.13 nM | 559 fold | 0.21 nM | 51.2 fold | binding result [3]: no binding (tested: 100 nM highest tested)
B6 | 95.8% | 99.3% | 0.000519 nM | 0.0381 nM | 1.6% | 5.1% | > 10 nM | > 1 nM | 1.8 fold | – | – | – | – | – | – | 0.8 fold | 1.3 nM | 467 fold | 2.4 nM | 138 fold | binding result [3]: no binding (tested: 100 nM highest tested)
